Data reported in patent publication US7223734B2, “Plasma protein-binding ligands” (The American National Red Cross, priority 2002, dated 2007).
“And” between values parts separate entries of the source, which are not always exact repeats. Equal entries are not always repeated. Non-standard residues stand in square brackets, D forms with d. No end group written: not given here.

Experiments:
API = molecular target: T1, API (Homo sapiens, UniProt P01009); assay: Preparation of fibrinogen- and Apo-A1-depleted plasma: API in flow-through (Example 5); assay type: binding; conditions: after chromatography on the named resin
T1 construct: from tissue; host or cells: human plasma (whole, fibrinogen-depleted or F1-Apo-depleted)
T1 sequence (P01009 25-418): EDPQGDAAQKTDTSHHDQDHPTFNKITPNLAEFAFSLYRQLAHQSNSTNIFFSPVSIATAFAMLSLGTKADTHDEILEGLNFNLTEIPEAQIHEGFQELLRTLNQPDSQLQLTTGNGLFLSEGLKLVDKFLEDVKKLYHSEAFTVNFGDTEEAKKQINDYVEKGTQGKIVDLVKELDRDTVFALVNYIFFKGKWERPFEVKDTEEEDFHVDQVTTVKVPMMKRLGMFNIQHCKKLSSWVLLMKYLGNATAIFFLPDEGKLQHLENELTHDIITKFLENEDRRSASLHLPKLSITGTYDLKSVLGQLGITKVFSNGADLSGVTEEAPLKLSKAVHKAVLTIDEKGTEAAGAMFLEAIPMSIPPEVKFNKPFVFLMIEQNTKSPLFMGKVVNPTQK
Description: (§1) Toyopearl AF Amino 650M resin displaying a peptide consisting essentially of the amino acid sequence D-ARQFDF (SEQ ID NO: 20) was suspended for 2 hours in 20% methanol. After washing with distilled water, the resin was packed into an Omni column (column volume (CV)=10 ml; diameter 1.5 cm; CF 1.77 cm^2) and equilibrated in 0.14 M NaCl, 0.020 M sodium citrate, pH 7.0 (EQ buffer). Fifty milliliters of filtered plasma (0.80 mm, Nalgene CN, Cat. No. 380-0080; 0.45 μm, Corning CA, Cat. No. 431155; 0.20 μm, Nalgene PES, Cat. No. 165-0020) were loaded on the Omni columns at a linear velocity (LV) of 50 cm/H (flow rate (FR)=1.5 ml/min; residence time (RT)=6.7 minutes). The flow-through was collected in column volumes. After pooling fibrinogen-depleted plasma (50 ml), the flow-through was loaded onto a column comprising a resin displaying an Apo-A1 lipoprotein-binding ligand (D-WWLHIN (SEQ ID NO: 33)), as described below. The fibrinogen-binding column was washed with 12 CVs of EQ buffer and the fibrinogen eluted with 10 CVs of 0.3 M glycine, 0.5 M NaCl, pH 9.0. The column was regenerated with 10 CVs of 2% Sarkosyl, pH 8.0, followed by 10 CVs of 2.0 M guanidine (GuHCl). After washing with 5 CVs of distilled water, the column was further cleaned with 6 CVs of 30% ethanol and 6 CVs of 70% ethanol containing 2% acetic acid. […]

fibrinogen [1] = molecular target: T2, fibrinogen (Homo sapiens, UniProt P02671+P02675+P02679); assay: Purification of fibrinogen from plasma by affinity chromatography on D-ARQFDF resin (Example 2); assay type: binding
T2 construct: from tissue; host or cells: human plasma
T2 sequence (P02671 20-629 limits assumed): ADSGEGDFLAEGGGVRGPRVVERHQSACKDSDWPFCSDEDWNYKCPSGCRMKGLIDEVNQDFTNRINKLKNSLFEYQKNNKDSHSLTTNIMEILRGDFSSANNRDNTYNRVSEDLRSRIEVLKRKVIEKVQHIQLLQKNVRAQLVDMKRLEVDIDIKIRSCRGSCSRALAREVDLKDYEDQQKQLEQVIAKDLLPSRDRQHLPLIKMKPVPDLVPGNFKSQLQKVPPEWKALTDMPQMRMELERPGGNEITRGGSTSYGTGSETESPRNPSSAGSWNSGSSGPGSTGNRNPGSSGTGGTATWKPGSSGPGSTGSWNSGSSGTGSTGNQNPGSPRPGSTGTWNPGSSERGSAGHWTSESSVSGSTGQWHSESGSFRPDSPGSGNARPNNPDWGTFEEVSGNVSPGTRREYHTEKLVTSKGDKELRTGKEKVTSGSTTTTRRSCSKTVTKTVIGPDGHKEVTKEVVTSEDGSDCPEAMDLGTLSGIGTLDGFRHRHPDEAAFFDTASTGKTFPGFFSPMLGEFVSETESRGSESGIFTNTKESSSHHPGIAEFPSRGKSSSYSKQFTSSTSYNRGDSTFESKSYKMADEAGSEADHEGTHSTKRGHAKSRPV
T2 sequence (P02675 31-491): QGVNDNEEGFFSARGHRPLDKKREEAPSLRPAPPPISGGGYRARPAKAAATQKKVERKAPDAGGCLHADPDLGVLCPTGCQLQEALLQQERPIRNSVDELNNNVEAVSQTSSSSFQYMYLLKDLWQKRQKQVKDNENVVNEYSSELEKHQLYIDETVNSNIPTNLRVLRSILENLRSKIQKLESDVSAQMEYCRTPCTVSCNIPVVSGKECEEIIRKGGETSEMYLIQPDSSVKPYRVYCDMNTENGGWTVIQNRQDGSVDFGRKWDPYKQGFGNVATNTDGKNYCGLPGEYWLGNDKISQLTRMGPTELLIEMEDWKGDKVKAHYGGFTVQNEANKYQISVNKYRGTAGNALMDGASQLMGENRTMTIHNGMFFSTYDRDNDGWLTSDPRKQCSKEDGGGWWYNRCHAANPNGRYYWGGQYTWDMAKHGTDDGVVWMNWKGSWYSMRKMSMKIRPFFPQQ
T2 sequence (P02679 27-433 limits assumed): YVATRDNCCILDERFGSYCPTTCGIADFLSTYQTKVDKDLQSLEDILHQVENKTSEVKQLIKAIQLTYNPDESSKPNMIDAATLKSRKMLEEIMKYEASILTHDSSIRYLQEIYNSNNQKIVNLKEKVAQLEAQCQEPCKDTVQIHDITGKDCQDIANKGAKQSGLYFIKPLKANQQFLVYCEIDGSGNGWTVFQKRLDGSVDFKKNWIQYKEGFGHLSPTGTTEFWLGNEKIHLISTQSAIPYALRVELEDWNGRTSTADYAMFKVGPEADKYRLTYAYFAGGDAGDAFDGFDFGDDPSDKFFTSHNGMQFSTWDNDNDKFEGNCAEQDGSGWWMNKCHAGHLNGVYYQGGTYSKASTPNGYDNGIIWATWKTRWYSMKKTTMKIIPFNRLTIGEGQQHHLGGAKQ
Description: ToyoPearl AF-Amino 650 M resin beads displaying dried D-ARQFDF (SEQ ID NO: 20) peptide via an epsilon amino caproic acid (EACA) spacer were suspended in 20% methanol for a minimum of 2 hours before equilibration in 0.12–0.15 M NaCl, 0.020 M sodium citrate, pH 6.5–7.5. For 2.0–2.1 ml columns, about […] of resin was obtained. The resin was subsequently packed in an Omni Column of 1.0–1.5 cm diameter and evaluated either on an ÄKTAExplorer System or BIO RAD BioLogic LP. Optical density at 280 nm–320 nm and conductivity was constantly monitored during the evaluations. Flow rates were selected according to column size to achieve linear velocities of 30–60 cm/hour and residence times between 5–8 minutes.
All evaluations were performed at room temperature with cryo-rich plasma that had been 0.8 μm and 0.45 μm filtered. A linear velocity (LV) of […] was maintained throughout the experiments. Fifty milliliters of plasma was applied at 1.5 ml/min (RT=6.7) onto 10 ml column (height 5.7 cm, CF=1.77 cm^2) that had been equilibrated with 0.14 M NaCl, 0.020 M sodium citrate, pH 7.0 (EQ buffer). After the column was washed with EQ buffer to baseline, the fibrinogen was eluted with 0.3 M glycine, 0.5 M NaCl at pH 9.0 (10 CV). The column was regenerated with 2% Sarkosyl, 2.0 M guanidine-HCl, 30% ethanol, followed by a 70% ethanol/2% acetic acid mixture and stored in 20% methanol.

fibrinogen [2] = molecular target: T2, fibrinogen; assay: Preparation of fibrinogen- and Apo-A1-depleted plasma: fibrinogen capture (Example 5); assay type: binding; conditions: nephelometric and clotting analysis
Description: as §1

Apo-A1 lipoprotein [3] = assay: Preparation of fibrinogen- and Apo-A1-depleted plasma: Apo-A1 in flow-through (Example 5); assay type: binding, human
Description: as §1

fibrinogen [4] = molecular target: T2, fibrinogen; assay: Purification of fibrinogen from plasma on HWQ resin column (Example 3); assay type: binding
Description: Five milliliters of plasma was applied at a flow rate of 0.2 ml/min. onto a 0.8 ml column (RT=4.0 min) containing a resin displaying the HWQ ligand, and was equilibrated with 0.14 M NaCl, 0.020M sodium citrate, pH 7.0 (EQ buffer). After washing the resin with EQ buffer and 0.5 M NaCl, pH 7.0, to baseline, the bound fibrinogen was eluted with 2.0 M NaCl, pH 7.0 or 0.3 M glycine, 0.5M NaCl, pH 9.0. All of the wash and elution buffers contained 0.020 M sodium citrate. […] However, dynamic resin capacities of 5–8 mg were reached. The resin was regenerated with 2 M guanidine-HCl, 2% Sarkosyl, 30% ethanol and 70% ethanol/2% acetic acid, followed by storage in 20% methanol.

paraoxonase [5] = conditions: after 1 hour incubation with resin at 37° C.; rabbit serum diluted 1/10
Description: Paraoxonase binding to a WWLHAN (SEQ ID NO: 56)-displaying resin was evaluated according to the following protocol. Rabbit serum diluted 1/10 times with PBS ([…]) was incubated in a rotating Eppendorf tube with 50 μl of D-WWLHAN (SEQ ID NO: 56)-displaying resin suspension containing approximately […] of resin. The resin was previously soaked in 20% methanol overnight and washed 3 times with PBS to remove the methanol traces and resuspended in paraoxonase assay buffer (20 mM Tris pH 8.0, 150 mM NaCl, and 2 mM CaCl2). After 1 hour incubation at 37° C., resin beads were precipitated by centrifugation at 8000 g for 1 min in an Eppendorf microcentrifuge. Supernatants were transferred into separate Eppendorf tubes and resin bead pellets were resuspended in equal volumes of paraoxonase assay buffer. Paraoxonase activity of resin bead suspensions and supernatant solutions was measured. In particular, 100 μl of paraoxonase assay buffer containing 100 μm of DEPFMU (a fluorogenic substrate for paraoxonase detection) was mixed with […] of supernatant or 10 μl of resin bead suspension, or the original serum solution in a standard microtiter plate well. After thorough mixing, the plate solution was incubated for 20 minutes at 37° C. Hydrolysis of DEPFMU was quantified by measuring the fluorescence level at […] using a commercial fluorometer. The level of fluorescence correlates with the level of 6,8-difluoro-4-methylumbelliferyl released from DEPFMU as a result of paraoxonase-mediated hydrolysis. The actual amount of 6,8-difluoro-4-methylumbelliferyl released in the assay can be calibrated with a known amount of 6,8-difluoro-4-methylumbelliferyl.
Several different D-WWLHIN (SEQ ID NO: 33) analogs were screened for the ability to bind to paraoxonase under the conditions described in Example 7. For this experiment, the following resins were tested: WWLHAN (SEQ ID NO: 56), AWLHIN (SEQ ID NO: 59), WALHIN (SEQ ID NO: 60), WWAHIN (SEQ ID NO: 61), WWLHIA (SEQ ID NO: 63), WYLHIN (SEQ ID NO: 35), WWLFIN (SEQ ID NO: 36), and na1′WLHIN (SEQ ID NO: 40).

Apo-A1 lipoprotein [6] = molecular target: T3, Apo-A1 lipoprotein (Homo sapiens, UniProt P02647); assay: Apo-A1 lipoprotein purification from fibrinogen-depleted plasma on peptide resin column (Example 4); assay type: binding
T3 construct: from tissue; host or cells: human plasma (whole or fibrinogen-depleted)
T3 sequence (P02647 25-267 limits assumed): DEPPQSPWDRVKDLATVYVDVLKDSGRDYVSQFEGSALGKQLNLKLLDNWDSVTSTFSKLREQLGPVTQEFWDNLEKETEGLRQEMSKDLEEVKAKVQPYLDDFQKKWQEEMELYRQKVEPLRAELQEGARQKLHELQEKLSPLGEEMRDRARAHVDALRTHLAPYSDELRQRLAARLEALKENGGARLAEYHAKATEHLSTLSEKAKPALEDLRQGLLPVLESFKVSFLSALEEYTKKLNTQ
Description: Apo-A1 lipoprotein purification was accomplished with D-WWLHIN (SEQ ID NO: 33) peptides and several analogs. Indeed, about 100% Apo-A1 lipoprotein depletion from plasma was repeatedly obtained with D-WWLHAN (SEQ ID NO: 56) and D-WWLHIN (SEQ ID NO: […]). Fourteen milliliters of fibrinogen-depleted plasma was loaded onto a 2.3 ml column (CF=0.785 cm^2) at 0.4 ml/min. (LV=30 cm/H; RT=5.8) that had been equilibrated with 0.14 M NaCl, 0.020 M sodium citrate, pH 7.0 (EQ buffer). After the column was washed with EQ buffer to baseline, Apo-A1 lipoprotein was eluted with 2.0 M NaCl, 1% Tween-20, 0.020M sodium citrate, pH 7.0. The column was regenerated with 2.0 M guanidine-HCl, 2% Sarkosyl, and 2% acetic acid and stored in 20% methanol.

paraoxonase [7] = conditions: without use of detergent
Description: Paraoxonase, or any plasma protein, can be recovered from the isolated or purified peptide of the invention coupled to a bead (i.e., a support) by several different approaches, including washing beads with buffers with high and low ionic strength, high and low pH, or buffers comprising up to 50% of ethylene glycol and different detergents.

| Substance | API recovered in the flow-through (API) | Total Fibrinogen (fibrinogen [1]; Elution, plasma load 51 mg) | Fibrinogen (fibrinogen [1]; Flow thru + Post wash, fibrinogen antigen (nephelometric analysis), plasma load 25 ml, 2.04 mg/ml) | runs with minimal changes in performance, dynamic resin capacity, or purity of fibrinogen eluates (fibrinogen [1]; resin reuse) | dynamic resin capacity (fibrinogen [1]; resin-to-plasma ratios of 1:3.5 to 1:4.5, peptide ligand densities 0.67–0.94 mmol/g resin) | fibrinogen captured (fibrinogen [2]) | Apo-A1 lipoprotein detected in the flow-through (Apo-A1 lipoprotein [3]; after treatment with the named resin) | elution of bound fibrinogen (fibrinogen [4]; 2.0 M NaCl, pH 7.0 or 0.3 M glycine, 0.5M NaCl, pH 9.0) | dynamic resin capacities (fibrinogen [4]; 5 ml plasma on 0.8 ml column) | original paraoxonase activity remaining in the serum (paraoxonase [5]) | Apo-A1 lipoprotein depletion from plasma (Apo-A1 lipoprotein [6]) | Apo-A1 lipoprotein detection after treating with the resin (Apo-A1 lipoprotein [3]; nephelometry and SDS-PAGE analysis) | paraoxonase activity eluted from the beads into the supernatant (paraoxonase [7]) |
| --- | --- | --- | --- | --- | --- | --- | --- | --- | --- | --- | --- | --- | --- |
| D-ARQFDF ([dA]RQFDF; not fully specified (residues 2, 3, 4, 5, 6, C-terminus)) | 100% | 54 mg and 46 mg | <0.15 mg/mL | over 15 runs | 6–8 g/L of resin | 100% | Ninety |  |  |  |  |  |  |
| HWQ |  |  |  |  |  |  |  | Complete elution of fibrinogen was not achieved | 5 to 8 mg |  |  |  |  |
| WWLHAN ([dW]WLHAN; not fully specified (residues 2, 3, 4, 5, 6)) [D-WWLHAN] | 90–95% |  |  |  |  |  |  |  |  | less than 4% | about 100% | no Apo-A1 lipoprotein could be detected | No paraoxonase activity was eluted |
